Where two headings read alike, the source gives them in different places.
How the values were obtained:
[1] = target: T1, FGFR-2c (Homo sapiens, UniProt P21802); assay: BiaCore binding kinetics; conditions: BiaCore kinetic analysis
T1 construct: purchased R&D Systems

[2] = target: T2, FGFR-3b (Homo sapiens, UniProt P22607); assay: BiaCore binding kinetics; conditions: BiaCore kinetic analysis
T2 construct: purchased R&D Systems

[3] = target: T3, FGFR-1(IIIc) (Homo sapiens, UniProt P11362); assay: ELISA blocking assay (receptor binding to immobilized FGF); design: purchased R&D Systems
T3 sequence (P11362 22-822): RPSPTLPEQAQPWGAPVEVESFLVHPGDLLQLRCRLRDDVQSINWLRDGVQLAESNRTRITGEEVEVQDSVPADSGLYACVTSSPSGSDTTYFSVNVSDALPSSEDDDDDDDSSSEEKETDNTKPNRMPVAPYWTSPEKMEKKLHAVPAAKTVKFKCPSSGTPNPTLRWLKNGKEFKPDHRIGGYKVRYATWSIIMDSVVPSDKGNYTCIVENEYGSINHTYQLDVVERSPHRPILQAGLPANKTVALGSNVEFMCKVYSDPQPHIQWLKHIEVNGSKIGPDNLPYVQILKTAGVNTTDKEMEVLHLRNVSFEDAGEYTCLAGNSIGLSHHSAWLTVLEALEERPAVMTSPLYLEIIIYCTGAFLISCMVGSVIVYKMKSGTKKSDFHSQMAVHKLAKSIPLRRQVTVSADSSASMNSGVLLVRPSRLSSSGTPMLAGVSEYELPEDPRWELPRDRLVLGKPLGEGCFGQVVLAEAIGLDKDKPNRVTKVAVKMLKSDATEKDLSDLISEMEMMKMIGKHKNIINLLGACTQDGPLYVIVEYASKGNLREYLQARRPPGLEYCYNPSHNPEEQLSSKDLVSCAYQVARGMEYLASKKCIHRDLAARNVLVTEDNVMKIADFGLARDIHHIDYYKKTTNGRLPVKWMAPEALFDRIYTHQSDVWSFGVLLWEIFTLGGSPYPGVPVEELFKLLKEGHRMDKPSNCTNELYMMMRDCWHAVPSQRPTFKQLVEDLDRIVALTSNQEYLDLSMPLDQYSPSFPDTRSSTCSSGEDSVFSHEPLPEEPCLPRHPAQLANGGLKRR
Procedure: Recombinant FGFs (R&D systems, Minneapolis, Minn.) were coated on Immulon® 2B microtiter plates (ThermoLab Systems, Franklin, Mass.) at concentrations of 0.5-2 μg/ml for 2 hrs. The plates were then washed with 0.2% Tween20/PBS, and blocked with 5% milk/PBS for 2 hrs before use. Phage or antibody was serially diluted with 5 μg/ml heparin (Sigma, St Louis, Mo.), 5% milk, PBS. Recombinant FGFR-1 (R&D Systems) was then added to a final concentration of 1 μg/ml. The mixture was incubated at room temperature for 1 hr before transfer to the FGF-2 coated plates, and incubated at room temperature for an additional 2 hrs. Plates were then washed 3 times with 0.2% Tween20/PBS. The bound receptors were detected using an anti-human Fc monoclonal antibody coupled with HRP (Pierce Biotechnology Inc., Rockford, Ill.) solution prepared according to supplier's instructions. Data were presented as % inhibition of ligand-receptor binding of the controls.

[4] = target: T4, FGFR-1c (Homo sapiens, UniProt P11362); assay: BiaCore binding kinetics; conditions: kinetic analyses; read-out: KD, FGFR-1c
T4 construct: purchased R&D Systems
T4 sequence (P11362 22-822): as above

[5] = tested on: Human astrocytoma G18 cells; assay: Mitogenesis assay (3H-thymidine); assay type: cell-based; conditions: FGF-2 stimulation
Procedure: Human astrocytoma G18 cells were seeded in 96-well tissue culture plates at a concentration of 5×10^4 cells/ml. After attachment, cells were quiesced for 24 hrs in RPMI media (Invitrogen) containing 0.1% FBS and 5 μg/ml heparin. Antibodies were serially diluted, added to the wells, and incubated with the cells at 37° C. for 1 hr. Recombinant FGF-2 was then added to a final concentration of 5 ng/ml. Cells were cultured in an incubator at 37° C. with 5% CO2. Cell growth was determined 24 hrs later by monitoring ^3H-thymidine incorporation as described previously.

[6] = target: T5, FGFR-1 (Homo sapiens, UniProt P11362); assay: Phosphorylation assay in FGFR-1 expressing L6 cells (western blot); assay type: cell-based; conditions: anti-phospho-tyrosine western blot
T5 construct: expressed in transfected cells; host or cells: L6 (ATCC), pBABE retroviral vector
T5 sequence (P11362 22-822): as above
Procedure: FGFR-1 expressing L6 cells were cultured in 10% FBS, DMEM, in a 24-well tissue culture plate till confluency. Cells were Serum starved in 5 μg/ml heparin, 0.1% FBS, DMEM, for 8-24 hrs. Either FR1-H7 or FR1-A1 was added to the media and allowed to bind with the cell surface receptors at 37° C. for 1 hr. Cells were then stimulated with 20 ng/ml FGFs at 37° C. for 10 min before they were lyzed using ice-cold lysis buffer for 30 min. Cell lysate was subjected to SDS-PAGE followed by western blot. Membranes were probed with anti-phospho-tyrosine antibody (Cell Signaling Technology, Inc., Beverly, Mass.) for detection of phosphorylated FGFR-1 receptors according to supplier's instructions.
The phosphorylation assay for small molecules is essentially the same as the phosphorylation assay described in Examples 7 and 15 and Phosphorylation Assay, except that small molecule compounds was used instead of FGFR-1 antibodies in all occasions. […] Equal amount of cell lysates were applied to each sample lane. Receptor auto-phosphorylation was probed using anti-phospho-tyrosine antibody as described in the original patent.

[7] = target: T6, FGFR-1b (Homo sapiens, UniProt P11362); assay: BiaCore binding kinetics; conditions: kinetic analyses
T6 construct: purchased R&D Systems
T6 sequence (P11362 22-822 isoform P11362-19 limits assumed): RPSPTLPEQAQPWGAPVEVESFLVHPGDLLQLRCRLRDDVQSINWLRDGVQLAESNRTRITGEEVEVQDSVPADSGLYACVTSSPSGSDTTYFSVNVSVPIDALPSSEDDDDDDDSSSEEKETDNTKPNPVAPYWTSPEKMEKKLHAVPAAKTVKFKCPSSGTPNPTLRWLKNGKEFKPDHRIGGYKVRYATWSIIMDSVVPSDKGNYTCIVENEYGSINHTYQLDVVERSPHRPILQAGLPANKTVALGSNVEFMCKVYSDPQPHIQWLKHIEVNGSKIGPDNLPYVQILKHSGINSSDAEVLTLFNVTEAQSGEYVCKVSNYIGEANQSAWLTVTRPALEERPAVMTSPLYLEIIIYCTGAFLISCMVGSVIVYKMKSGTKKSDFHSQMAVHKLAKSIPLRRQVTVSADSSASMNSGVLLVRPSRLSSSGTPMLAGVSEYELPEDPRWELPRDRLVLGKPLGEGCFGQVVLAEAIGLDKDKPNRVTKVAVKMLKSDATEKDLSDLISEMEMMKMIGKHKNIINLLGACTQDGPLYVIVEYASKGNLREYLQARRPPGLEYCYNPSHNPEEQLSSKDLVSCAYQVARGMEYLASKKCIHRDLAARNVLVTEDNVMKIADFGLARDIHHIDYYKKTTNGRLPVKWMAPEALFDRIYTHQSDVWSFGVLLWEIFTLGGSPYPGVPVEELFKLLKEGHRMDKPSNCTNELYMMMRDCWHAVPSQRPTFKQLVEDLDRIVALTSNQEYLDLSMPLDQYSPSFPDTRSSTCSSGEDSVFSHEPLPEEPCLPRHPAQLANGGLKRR

[8] = Repeated-dose study in female athymic nude mice: body weight, food intake, rearing, blood glucose; assay type: in vivo; conditions: for body weight loss compared to the control: day 5 after two treatments; for reduction of non-fast food intake: between first and second treatments
Procedure: Female athymic nude mice (Cr1:NU/NU-nuBR, Charles River Laboratories, Wilmington, Mass.) were housed 4-5 per cage. Mice were given autoclaved food (Lab Diet #5001, PMI Feeds Inc., St. Louis, Mo.) and water ad libitum. All animal use in this study was conducted in compliance with approved institutional animal care and use protocols, and according to NIH guidelines (Guide for the Care and Use of Laboratory Animals, NIH publication no. 86-23, 1985).
In one assay, mice were injected intraperitoneally (i.p.) with FR1-H7 at 0.19, 1.9, and 19 mg/kg body weight (n=5 per group). In another assay, mice were injected subcutaneously (s.c.) with the antibody, at 0.4, 4, and 40 mg/kg body weight. In control arms, mice were treated with saline i.p. or s.c. In addition, one group of mice was left untreated (n=4). All treatments were given at a volume of 10 μl/g body weight in Saline. Treatments were started on a Wednesday (Day 0) with additional treatments on the following Friday, Monday, Wednesday, and Friday. After this 9-day treatment period mice received no additional treatments.
Alternatively, female athymic nude mice were injected (i.p.) with saline, 2 mg/kg, or 20 mg/kg FR1-A1 on a Monday (Day 0) and Wednesday. Body weights were measured before the first injection, and on Day 2 and Day 5. Food intake per group was measured 2 days after the first injection.
The body weights of all animals were measured 3 times/week. Food consumption, behavior, and serum glucose were evaluated as follows. Food Intake Measurement: Prior to the treatment on Day 2 mice were placed in a new cage and the weight of the food container in the cage top was weighed. Prior to the treatment on Day 5 the weight of the food container was measured again. The difference in the Day 2 to Day 5 food container weight was divided by the number of mice per cage and the number of days between the measurements to give a food intake per mouse per 24 hrs. Activity Measurement: On Day 12, 3 days after the final treatment, mice were placed individually into a new cage and the number of rearings was counted over a 1 min period. Blood Glucose Measurement On Day 16, 7 days after the final treatment, non-fasted blood glucose was measured in blood collected from the tip of the tail using an Ascensia Elite XL blood glucose meter (glucose oxidase method, Bayer, Pittsburg, Pa.).

[9] = target: T7, FGFR-2b (Homo sapiens, UniProt P21802); assay: BiaCore binding kinetics; conditions: BiaCore kinetic analysis
T7 construct: purchased R&D Systems
T7 sequence (P21802 22-822 isoform P21802-3 limits assumed): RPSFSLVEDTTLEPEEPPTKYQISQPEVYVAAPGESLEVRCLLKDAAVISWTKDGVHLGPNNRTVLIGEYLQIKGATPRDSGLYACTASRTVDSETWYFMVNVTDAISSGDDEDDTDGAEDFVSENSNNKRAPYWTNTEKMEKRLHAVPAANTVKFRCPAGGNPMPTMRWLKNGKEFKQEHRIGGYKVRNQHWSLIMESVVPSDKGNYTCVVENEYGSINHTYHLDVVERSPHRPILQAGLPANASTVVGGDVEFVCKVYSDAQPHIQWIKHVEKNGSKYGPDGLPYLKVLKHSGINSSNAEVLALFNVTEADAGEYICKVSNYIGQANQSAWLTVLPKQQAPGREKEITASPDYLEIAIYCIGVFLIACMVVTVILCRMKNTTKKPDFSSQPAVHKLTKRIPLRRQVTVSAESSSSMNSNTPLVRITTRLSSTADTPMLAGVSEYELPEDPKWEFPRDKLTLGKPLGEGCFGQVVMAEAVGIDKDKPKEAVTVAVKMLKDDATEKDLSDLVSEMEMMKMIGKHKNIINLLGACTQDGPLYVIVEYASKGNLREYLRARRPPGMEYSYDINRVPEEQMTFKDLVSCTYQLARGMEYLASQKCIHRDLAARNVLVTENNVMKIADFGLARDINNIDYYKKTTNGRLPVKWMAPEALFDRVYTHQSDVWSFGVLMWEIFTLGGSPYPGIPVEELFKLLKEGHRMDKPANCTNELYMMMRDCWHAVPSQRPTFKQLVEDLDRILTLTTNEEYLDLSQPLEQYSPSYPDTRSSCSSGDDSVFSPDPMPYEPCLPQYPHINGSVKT

[10] = target: T3, FGFR-1(IIIc); assay: ELISA binding assay; design: purchased R&D Systems
Procedure: (§1) Recombinant FGFRs (R&D systems) at a concentration of 1 μg/ml in PBS were coated on 96-well plates at room temperature for 2 hrs. The plates were washed 3 times with 0.2% Tween20/PBS, and blocked with 5% milk/PBS for 2 hrs before use. FR1-H7 or FR1-A1 was added to the plate and serially diluted in 0.2% Tween20/PBS. The plate was incubated at room temperature for 2 more hrs. The captured antibodies were detected using an anti-human light chain monoclonal antibody conjugated with […] (Pierce Biotechnology, Rockford, Ill.) solution prepared according to supplier's instructions.

[11] = target: T8, FGFR-4 (Homo sapiens, UniProt P22455); assay: ELISA binding assay
T8 construct: purchased R&D Systems
Procedure: as §1

[12] = tested on: other FGFRs; assay: ELISA binding assay
Procedure: as §1

[13] = target: T9, FGFR-3c (Homo sapiens, UniProt P22607); assay: BiaCore binding kinetics; conditions: BiaCore kinetic analysis
T9 construct: purchased R&D Systems
T9 sequence (P22607 23-806): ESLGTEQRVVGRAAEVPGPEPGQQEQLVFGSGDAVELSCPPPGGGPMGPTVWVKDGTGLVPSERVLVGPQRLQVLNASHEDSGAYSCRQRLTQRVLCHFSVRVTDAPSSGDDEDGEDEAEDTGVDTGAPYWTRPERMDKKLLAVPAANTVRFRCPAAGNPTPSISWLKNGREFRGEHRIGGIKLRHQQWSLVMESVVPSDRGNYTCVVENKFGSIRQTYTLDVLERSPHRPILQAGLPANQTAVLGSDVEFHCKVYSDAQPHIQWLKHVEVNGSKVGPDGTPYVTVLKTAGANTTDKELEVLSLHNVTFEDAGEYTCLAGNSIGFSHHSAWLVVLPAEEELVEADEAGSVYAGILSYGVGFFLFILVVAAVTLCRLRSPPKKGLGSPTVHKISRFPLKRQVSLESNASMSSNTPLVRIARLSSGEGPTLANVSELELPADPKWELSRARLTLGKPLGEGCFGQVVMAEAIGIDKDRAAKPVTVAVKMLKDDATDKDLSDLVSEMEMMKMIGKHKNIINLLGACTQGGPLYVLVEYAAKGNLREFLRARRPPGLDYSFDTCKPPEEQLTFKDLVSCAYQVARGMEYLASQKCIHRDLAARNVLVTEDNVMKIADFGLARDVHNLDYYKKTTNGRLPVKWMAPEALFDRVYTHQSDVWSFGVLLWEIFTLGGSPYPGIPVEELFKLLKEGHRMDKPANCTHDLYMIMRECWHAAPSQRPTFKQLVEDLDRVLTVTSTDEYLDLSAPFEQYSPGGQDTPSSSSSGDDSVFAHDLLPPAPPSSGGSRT

T1 sequence (P21802 22-821): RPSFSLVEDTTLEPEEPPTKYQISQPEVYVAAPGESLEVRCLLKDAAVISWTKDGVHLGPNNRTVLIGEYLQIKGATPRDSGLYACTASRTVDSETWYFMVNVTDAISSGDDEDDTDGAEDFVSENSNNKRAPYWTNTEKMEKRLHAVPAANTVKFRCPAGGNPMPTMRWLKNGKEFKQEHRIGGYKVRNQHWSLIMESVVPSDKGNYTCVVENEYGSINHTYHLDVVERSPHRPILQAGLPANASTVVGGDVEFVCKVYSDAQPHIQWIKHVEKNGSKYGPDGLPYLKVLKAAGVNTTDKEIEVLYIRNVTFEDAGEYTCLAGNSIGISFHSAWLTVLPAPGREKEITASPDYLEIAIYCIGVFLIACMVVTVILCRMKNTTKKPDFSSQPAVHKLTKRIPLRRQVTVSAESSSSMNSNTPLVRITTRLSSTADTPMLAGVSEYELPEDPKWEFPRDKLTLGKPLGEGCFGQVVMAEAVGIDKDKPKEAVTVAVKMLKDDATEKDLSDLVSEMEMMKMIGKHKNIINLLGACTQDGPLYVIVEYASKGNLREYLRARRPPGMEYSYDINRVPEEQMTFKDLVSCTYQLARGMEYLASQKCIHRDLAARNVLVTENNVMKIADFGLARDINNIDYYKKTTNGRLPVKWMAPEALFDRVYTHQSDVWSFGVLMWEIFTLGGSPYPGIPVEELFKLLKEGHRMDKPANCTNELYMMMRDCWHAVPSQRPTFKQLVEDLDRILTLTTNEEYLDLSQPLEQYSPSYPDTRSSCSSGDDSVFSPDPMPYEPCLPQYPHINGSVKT
T2 sequence (P22607 23-808 isoform P22607-2 limits assumed): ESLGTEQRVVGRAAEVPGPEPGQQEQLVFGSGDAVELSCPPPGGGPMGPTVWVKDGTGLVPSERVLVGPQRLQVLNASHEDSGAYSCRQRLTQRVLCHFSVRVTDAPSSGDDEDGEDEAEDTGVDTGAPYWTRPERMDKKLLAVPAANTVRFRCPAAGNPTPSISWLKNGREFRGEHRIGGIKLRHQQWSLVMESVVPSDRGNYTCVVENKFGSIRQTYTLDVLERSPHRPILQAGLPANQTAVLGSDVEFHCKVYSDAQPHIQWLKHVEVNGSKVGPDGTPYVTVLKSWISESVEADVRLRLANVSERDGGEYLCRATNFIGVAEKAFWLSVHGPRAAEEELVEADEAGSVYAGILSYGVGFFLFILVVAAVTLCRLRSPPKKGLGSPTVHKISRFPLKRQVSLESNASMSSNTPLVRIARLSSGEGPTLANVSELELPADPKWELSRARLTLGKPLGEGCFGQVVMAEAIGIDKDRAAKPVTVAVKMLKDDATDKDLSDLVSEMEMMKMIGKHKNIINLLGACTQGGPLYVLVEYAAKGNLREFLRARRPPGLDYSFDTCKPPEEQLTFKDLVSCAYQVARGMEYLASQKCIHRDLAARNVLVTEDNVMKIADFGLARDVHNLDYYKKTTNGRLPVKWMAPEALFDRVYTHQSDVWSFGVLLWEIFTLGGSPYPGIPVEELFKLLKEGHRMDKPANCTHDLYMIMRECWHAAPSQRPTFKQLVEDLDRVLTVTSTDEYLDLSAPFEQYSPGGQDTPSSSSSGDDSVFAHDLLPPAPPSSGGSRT

B1: FR1-A1: antibody specific for FGFR-1(IIIc) and/or FGFR-4(IIIc); VH/VL SEQ ID NOS:15, 16 (antibody, listed as Homo sapiens, V domains shown)
VH: MAQVQLVQSGAEVKKPGSSVKVSCKASGQTFTGYYMHWVRQAPGQGLEWMGRIIPILGIANYAQKFQGRVTITADKSTSTAYMELSSLRSEDTAVYYCARGGDLGGMDVWGQG
VL: LEIVLTQSPLSLPVTPGEPASISCRSSQSLRHSNGYNYLDWYLQKPGQSPQLLIYLASNRASGVPDRFSGSGSGTDFTLKISRVEAEDVGVYYCMQALQIPPTFGPGTKVDIKRTVAA
Kd [1]: > 10000 nM | Kd [2]: > 10000 nM | IC50 ([3]; immobilized FGF-1, read-out: IC50, blocking FGFR-1(IIIc) binding to FGF-1): ~5 nM | IC50 ([3]; immobilized FGF-2, read-out: IC50, blocking FGFR-1(IIIc) binding to FGF-2): ~10 nM | Kd [4]: 0.7 nM | FGF-2 stimulated DNA synthesis (mitogenesis) of G18 cells [5]: decreased this stimulation in a dose-dependant manner | inhibition of ligand (FGF) mediated receptor phosphorylation ([6]; antibody): significantly inhibits | receptor activation by the antibody by itself ([6]; no ligand): does not activated the receptor | Kd [7]: > 10000 nM | body weight loss compared to the control ([8]; 2 mg/kg i.p.): ~9% | reduction of non-fast food intake ([8]; 2 mg/kg): ~14% | body weight loss compared to the control ([8]; 20 mg/kg i.p.): ~23% | reduction of non-fast food intake ([8]; 20 mg/kg): ~44% | Kd [9]: > 10000 nM | binding to FGFR-1(IIIc) [10]: strong binding affinity | binding to FGFR-4 [11]: moderate affinity | binding to the other FGFRs [12]: little binding | Kd [13]: > 10000 nM

Source: US8263074B2, “Fibroblast growth factor receptor-1 inhibitors and methods of treatment thereof” (ImClone LLC, priority 2003, dated 2012)
